{"source": "the nanobody polyreactivity screen of Harvey et al. (2022)"}
{"assay": "yeast display, Sf9 membrane polyspecificity reagent, FACS + sequencing; frameworks hold sequencing errors", "method_in_brief": "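A synthetic nanobody library was expressed on Saccharomyces cerevisiae BJ5465 by galactose induction for 36–48 hours. The library was stained for 1 hour at 4 °C with 10% biotinylated, detergent-solubilized Sf9 membrane reagent and enriched with streptavidin microbeads before FACS. Low and high (top ~1%) gates were set on anti-HA fluorescence for expression and streptavidin fluorescence for reagent binding, and each polyreactivity label reflects the gate of origin.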"}
{"sequence": "QVKLVESGGGLVQAGGSLRLSCAASGRIFSGYAMGWYIQAPGKESEFVAAITWNGVSTYYADSVKVRFTISRDNAKNTVYLLMNSLKPEDTAVYYCAKDYVYYPSYRGSVNYWGQGTQVTVSS", "polyreactivity (PSR sort gate)": "low polyreactivity"}
{"sequence": "QVKLVESGGGLVQAGGSLRLSCAASGRTFGYNAMGWYRQAPGKERELVASINWSGGRTYYADSVKGRFTISRDNAKNTVYLQMYSLKPEDTAVYYCAKGFTRVQQQYQYLFGYWGQGTQVTVSS", "polyreactivity (PSR sort gate)": "low polyreactivity"}
{"sequence": "QVKLVESGGGLVQAGGSLRLSCAASGRTFINYAMGWYRQAPGKERELVAAITTGGRTNYADSVKGRFTISRDNSKNTVYLQMNSLKPEDTEVYYCAADRYDWGRNTLNYWGQGTQVTVSS", "polyreactivity (PSR sort gate)": "low polyreactivity"}
{"sequence": "QVKLVESGGGLVQAGGSLRLSCAASGRTFYINAMGWYRQAPGKERELVAAISRVGSTNYADSVKGRFTISRDNAKNTVYLQMNSLKPEDTEVYYCAARSRGGRRYYYWGQGSQVTVSS", "polyreactivity (PSR sort gate)": "high polyreactivity"}
{"sequence": "QVKLVESGGGLVQAGGSLRLSCAASGSTFYQNAMGWYRQAQGKEREFVAAISGSGDRTNYADSVKARFTISRDNAKNTVYLQMNSLKPEDTAVYFCAARGQPGRRTSSGFFSGGYCGQGTQVTVSS", "polyreactivity (PSR sort gate)": "high polyreactivity"}
{"sequence": "QVKLVESGGGLVQAGGSLRLSCAASVRIFALNTMGWYREAPGKERELDAAISYRGGSTYYADSVKGRFTISRDNAKTTVYLQMNSLKPEDTAVYYCAARCYSYSRRYGYDYWGQGTQVTVSS", "polyreactivity (PSR sort gate)": "high polyreactivity"}
{"sequence": "QVKLVESGGGLVQAGGSLRLSCADSGLIFYKYAMGWYRKAPGKERELVAAITSGGSTNYADSVKGRFTISRDNAKNTVYLQMNSLKPEDTAVYYCNADYNHYLVVRWWYPPVDYWGQGTQVTVSS", "polyreactivity (PSR sort gate)": "low polyreactivity"}
{"sequence": "QVKLVESGGGLVQAGGSLRLSFAASAGTFNSYAKGWYRQEPGKERELVATISYSGGSTYYADSVKGRFTISRDNAKYTVYLQMNSLKPEDTAVYYCAKVRYYPYSPGGLDYWGQGTQVTVSS", "polyreactivity (PSR sort gate)": "low polyreactivity"}
{"sequence": "QVKLVESGGGLVQAGGSLRLTCAASGSTFGPYAMGWYRQEPGKERELVSTITRNGGSTYYADSVKGRFTISRDNAKNTVYLQMNSLKPEDTAVYYCNAEGRWSSFTQRMDYWGQGTQVTVSS", "polyreactivity (PSR sort gate)": "low polyreactivity"}
{"sequence": "QVKLVESGGGLVQAGGSLSLSFAYSGITFYGNAMGWYRQAAGTERELVAAITGGGGTNYADSLKGRFTISRDNEKNTVYLQMNSLKPEDTAVYYCNRDYFVWFQRGQYKRGSSWYDYWGQGTQVTVSS", "polyreactivity (PSR sort gate)": "low polyreactivity"}
{"sequence": "QVKLVESGGGLVQAGRSLRLICAASGFTFHYNSMGWYRQAPGKEREFVAAISGSGDRTYYADSGKGRFTISRDNAKNTVYLQMNSLKPEDTAVYYCATSVRQNYFYSYDYWGQGTQVTVSS", "polyreactivity (PSR sort gate)": "high polyreactivity"}
{"sequence": "QVKLVESGGGLVQAGRSLRLSCAASGFTFSANTMGWYRQAPGKERELVAAITRGGRTYYADSVKGRFTISRDNAKNTVYLQMNSLKPEDTAVYYCAKRATWYTVTREGYWGQGTQVTVTS", "polyreactivity (PSR sort gate)": "high polyreactivity"}
{"sequence": "QVKLVESGGGLVQAGVSLRLSCAASGRIFVFYAMGWYRQAPGKERELVAAITASSTRTYYADSVKGRFTISRAHAKNTVYLQMNSLKPEDTAVYYCARDIRQYILYGRGDYWGQGTQVTVSS", "polyreactivity (PSR sort gate)": "low polyreactivity"}
{"sequence": "QVKLVESGGGLVQSGGSLRLSCAAYGRIFATNAMGWYRPAPGKERELVATITRSAGRTYYADSVKGRFTISRVKAKHSVYLQMNRLKPEDTAVFYFAASYWDTGPGYREYDYWGEGTQVTVSS", "polyreactivity (PSR sort gate)": "low polyreactivity"}
{"sequence": "QVKLVESGRGLVQAGGSLRLSCAASGRIFTNNAMGRYRPATGKERELVAAINVSGGRTYYADSVKGRFTISRENAKNTVYLQMISLKPDDTAVYYCNKVKETYMDYWGQGTQVTVSS", "polyreactivity (PSR sort gate)": "high polyreactivity"}
{"sequence": "QVKLVETGGGLVQAGGSLRLSCAASGSTFEHYAMGWYRQAPGKERELVAAISYTGGNTYYAYSVKGRFTISRDNAKNTVYLQMNSLKPEDTAVYYCAAAPLYYHRRGYYYWGQGTQVTVSS", "polyreactivity (PSR sort gate)": "high polyreactivity"}
